Test results taken from patent publication US20260078146A1, “EPHA2 TARGETING AGENTS AND USES THEREOF” (The Regents of the University of California, priority 2022, published 2026).
*1 amine or outer side, *2 acyl side, *3 side chain or, on linkers, in order; H or OH if unused. Where no end group is shown, it is not given here. [ ]: non-standard residue; d: D form. The star is where a group is joined. 2‑CF3‑Bip = 4-(2-trifluoromethylphenyl)-L-phenylalanine, O=C([C@H](Cc1ccc(-c2ccccc2C(F)(F)F)cc1)N[*:1])[*:2]; Phe(2-NH2) = O=C([C@H](Cc1ccccc1N[*:3])N[*:1])[*:2]; Acetyl(2-(piperazin-1-yl)) = O=C(CN1CCNCC1)*; Chg = N[C@H](C(=O)O)C1CCCCC1; GABA = NCCCC(=O)O; βAla = NCCC(=O)O

What was measured:
[1] = 8 mg/Kg daily, IV, Balb/C mice, 3 mice
MIA PaCa-2 tumors = assay: Tumor xenograft with MIA PaCa-2 cells; type: in vivo, nu/nu mice
[2] = biological target: T1, EphA2 ligand binding domain (EphA2-LBD), recombinant (UniProt P29317 27-200, limits assumed); assay: DELFIA displacement; competitor: immobilised 123B9-Biotin
T1 construct: also called EphA2 protein; isolated EphA2-LBD

[3] = biological target: T1, EphA2 ligand binding domain …; assay: ITC
[4] = dose equivalent to […] of PTX (targefrin-PTX 10 mg/Kg, targefrin-dimer-PTX 17 mg/kg), IV days 1, 4, 8, 11, 15, 18, compared to untreated and PTX groups

T1 sequence (P29317 27-200 limits assumed): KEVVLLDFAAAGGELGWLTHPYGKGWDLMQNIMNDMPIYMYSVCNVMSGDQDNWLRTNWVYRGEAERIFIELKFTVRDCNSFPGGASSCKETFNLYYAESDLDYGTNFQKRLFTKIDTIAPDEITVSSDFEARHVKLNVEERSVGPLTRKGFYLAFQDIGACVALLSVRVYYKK

CC(=O)O[C@H]1C(=O)[C@@]2(C)[C@H]([C@H](OC(=O)c3ccccc3)[C@]3(O)C[C@H](OC(=O)[C@H](O)[C@@H](NC(=O)c4ccccc4)c4ccccc4)C(C)=C1C3(C)C)[C@]1(OC(C)=O)CO[C@@H]1C[C@@H]2O [PTX, paclitaxel, reference compound]
mice found dead after the 2nd dose [1]: 2 of 3

CC(=O)O[C@H]1C(=O)[C@@]2(C)[C@H]([C@H](OC(=O)c3ccccc3)[C@]3(O)C[C@H](OC(=O)[C@H](OC(=O)CCCCCn4cc(CCCC(=O)NCCCC[C@H](NC(=O)CNC(=O)[C@H](CCCCNC(=O)CNC(=O)[C@@H]5CCCN5C(=O)[C@@H](CCCNC(=N)N)NC(=O)[C@@H](Cc5ccccc5)NC(=O)[C@H]5CCCN5C(=O)[C@H](NC(=O)[C@@H](C)NC(=O)[C@@H](CC(=O)O)NC(=O)[C@@H]5CCCN5C(=O)[C@H](Cc5ccc(-c6ccccc6C(F)(F)F)cc5)NC(=O)[C@H](C)NC(=O)[C@H](CC(C)C)NC(=O)[C@H](Cc5ccc(N)cc5)NC(=O)CN5CCNCC5)C5CCCCC5)NC(=O)CNC(=O)[C@@H]5CCCN5C(=O)[C@H](CCCNC(=N)N)NC(=O)[C@H](Cc5ccccc5)NC(=O)[C@@H]5CCCN5C(=O)[C@@H](NC(=O)[C@H](C)NC(=O)[C@H](CC(=O)O)NC(=O)[C@@H]5CCCN5C(=O)[C@H](Cc5ccc(-c6ccccc6C(F)(F)F)cc5)NC(=O)[C@@H](C)NC(=O)[C@@H](CC(C)C)NC(=O)[C@@H](Cc5ccc(N)cc5)NC(=O)CN5CCNCC5)C5CCCCC5)C(N)=O)nn4)[C@@H](NC(=O)c4ccccc4)c4ccccc4)C(C)=C1C3(C)C)[C@]1(OC(C)=O)CO[C@@H]1C[C@@H]2O [targefrin-dimer-PTX, [PiperazAcAcid-(2-NH2-Phe)-L-A-(2-CF3-Bip)-PD-A-Chg-PFRPG]2-KGK-(Linker)-PTX]
antitumor effect (tumor volume) (MIA PaCa-2 tumors; [4]): significant antitumor effect
antitumor effect (tumor volume) (MIA PaCa-2 tumors; lower dose 10 mg/kg, equivalent to 1.5 mg/kg of PTX, compared to PTX […] group): more effective than the PTX treated group

PiperazAcAcid-(2-NH2-Phe)-L-A-(2-CF3-Bip)-PD-A-Chg-PFRPG-K-(Linker)-PTX (XLAXPDAXPFRPGK; not fully specified; non-natural residues) [targefrin-PTX]
antitumor effect (tumor volume) (MIA PaCa-2 tumors; [4]): significant antitumor effect

B1: targefrin-dimer (agent 28, n = 1, Gly-Lys linker) (peptide)
peptide: XLAXPDAXPFRPG
chain: K
modifications: branching Lys that carries one arm on each of its two amines; C-terminal CONH2; N-terminal PiperazAcAcid cap; X1 = 2-NH2-Phe; X4 = 2-CF3-Bip; X8 = Chg; the C-terminal Gly is joined to an amine of the branching Lys
IC50 [2]: 6.5 nM

B2: targefrin (agent 27) (peptide)
peptide: XLAXPDAXPFRP
modifications: N-terminal PiperazAcAcid cap; X1 = 2NH2-Phe; X4 = 2-CF3-Bip; X8 = Chg; C-terminal CONH2
notes: also called targefrin monomer; monomeric version of targefrin
-TΔS [3]: 9.7 kcal/mol
ΔH [3]: -20.2 kcal/mol

B3: dimeric targefrin agent 30 (n = 3, GABA spacer) (peptide)
peptide: {Acetyl(2-(piperazin-1-yl))}-[Phe(2-NH2)]LA[2‑CF3‑Bip]PDA[Chg]PFRP[GABA]
chain: Lys-NH2
modifications: also: branching Lys carries a second identical arm (dimer)
IC50 [2]: 5.3 nM

B4: dimeric targefrin agent 29 (n = 2, β-Ala spacer) (peptide)
peptide: {Acetyl(2-(piperazin-1-yl))}-[Phe(2-NH2)]LA[2‑CF3‑Bip]PDA[Chg]PFRP[βAla]
chain: Lys-NH2
modifications: also: branching Lys carries a second identical arm (dimer)
IC50 [2]: 7.6 nM
